The results in this text go back to the domain aggregation screens of Martell et al. (2025).

A short description of the data set: soluble fraction after stress (log2 fold change); higher = more stays soluble; pooled small domains, quantitative proteomics. As to conditions: stress: pH 4. The method in brief:
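With high-throughput quantitative proteomics, pooled custom libraries of small protein domains were measured after pH 4 stress. Each domain's soluble amount after the stress gives a fold change taken as aggregation propensity. Higher log2 values mean more of the domain stayed soluble.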
As to “HMAKTGMDALVGRRVVLTKAIAGEGEGLVAVDGDVWRATSPAGSAIPKGTEVRITGYRSIVLEVEPI”, the “soluble fraction (log2)” value was 0.139.

Regarding “HMAKYEVVAKDIISRIKQNEFETTLKLPTEDEMIEYYQVSRNTVRSALKLLTSQGIIFSRQGSGFYIRQRS”, the “soluble fraction (log2)” value is -0.117.

As to “HMALALSGVDLNRNRLTISWQTSKGVSYRVQRSSDLQSWTDVGAERLGNGNRLSHTQALNTESAFLRVII”, the “soluble fraction (log2)” value is -0.674.

For “HMALEGTLARVSVRIPESGVGEIIFSLGGVRRSEAARSVSGRAIPRGTEVVILSYERGIATVQPYEELLTN”, the “soluble fraction (log2)” value was -0.256.

“HMALEVPGIAKDKIYRIFGQLYERQQKWEDAIDYYNRAVFFTLSGTDMILYQEDLSRVKQKISL”: the “soluble fraction (log2)” value is -0.152.

On to “HMALKRVAPQGEDKLSAQLDGVEFDKLIPWLGMLEHDHRIAIVNLSIDRANATGLVNARVIL”, for which the “soluble fraction (log2)” value was 0.251.

Consider “HMALKSGVIAHAVDDAVMRGLNVFTVSDDGSIVSMKDNDIVLGKDGKSPYSVSEWLEELKPNVPHWFG”, for which the “soluble fraction (log2)” value is -0.256.

“HMALKSYEDMVGKTGVAYTVLRPSGKVIINDELFDATARSGMIEKGNEVIIYDYKNAQLIVEK”: the “soluble fraction (log2)” value was -0.518.

For “HMALPASLSPREREIVSLISQGKTNSEIASLLYISVPTVKTHISNIFQKTGVSNRTSLLNRLRMS”, the “soluble fraction (log2)” value was -0.0542.

For the sequence “HMALPHEIKQKWLEEIMTMLRSSDSVTINKVYLHFPENKSHWVDEILTDLSNTHMITRQHDFIRLKN”, the “soluble fraction (log2)” value was -0.221.

“HMALQDKYKQLVDTATASGVANLQVREQDGVLYIDGEAPSGSVKDQLWDIYGKIDPNFLSGDVVMNINV”: the “soluble fraction (log2)” value is -1.12.

For the sequence “HMALQLPFSFAKRHKVLVESAHEPVKVYHTPSTDFAVFAEVRRFLDQTFVLEEIAENRFEELLTSSFQRD”, the “soluble fraction (log2)” value is -1.46.

As to “HMALSETIYRLRTEHGLSQGDLAAELDVSRQSISKWETGSSVPELDKLVAMSRLFGVSLDELVLGE”, the “soluble fraction (log2)” value is -0.584.

On to “HMALSLPDDMTIVRKDGSSLEVRLKSRTVTEIHFERISDSETFQFSIDQLDETTRELVEQYPVM”, for which the “soluble fraction (log2)” value is -0.407.

Consider “HMALTAEVLRSLIKHHGLGQSIQRTAKAVGLSASTVKKYFDRIAAANLTWQEAKSRTQEELIASLQPT”, for which the “soluble fraction (log2)” value is 0.107.

With “HMALTARDLGLTHRQADVLHLVLQGKPVKLIARDLGLAEGTVKSHVSAVLRALNVTTRTQAIVAAGRLGLM”, the “soluble fraction (log2)” value was at least 0.43.

Regarding “HMAMDITLPLAEVRRQSLEQIERQYLNELMSKHLGRINRAAEAAGITTRQLHKLLTKYSIRKEDFK”, the “soluble fraction (log2)” value is 0.0354.

With “HMAMESDELETLVDQLIVDHPDEWSRFVGGDDGDRKKMQGFFTGQIMKATKGQADGRAVAQLLGQKSA”, the “soluble fraction (log2)” value was -0.337.

In the case of “HMAMLSKREAEILKLTAKGHSSTDIAQRLTISVNTVEFHRRRIMQKLNAANVAEAVGKAAELGLFF”, the “soluble fraction (log2)” value was -0.47.

On to “HMAMSAGEVVERIREHVGHPATIKELMRVLAIPNEERYRFRRRIKQLVEAGELIRIRGNRYGLADR”, for which the “soluble fraction (log2)” value is at least 0.43.

“HMAMTITKIEKTSQQKIYYFTDSGRVFKKMSDRSATIAVDDRVELEGGVLGSKFFVTANGSRVKVKEV”: the “soluble fraction (log2)” value was 0.0344.

For the sequence “HMAMYSREKLKKLREDRGLTQYELAKIAGISVVTLNKIESSDSAKPFVKTLNKIAQALGVGIDELS”, the “soluble fraction (log2)” value is at least 0.43.

“HMAMYYVIGGDGQQYGPIDEATVRGWLGEGRVSAASLSFKTGEAQWIPLRDRPELADVLATA”: the “soluble fraction (log2)” value was -0.311.

Take “HMANKLSEQIYGSILKDIVNGVYAPREFISEAQIAAKYGVSKAPVKEAMHILASEGFLLSYPKRGYMVN”: the “soluble fraction (log2)” value was 0.109.

As for “HMANKQLQEKLKNYISENGSLSSAAKAIGLSPATLSTYLKDKYEGNVANVETRLTEIFETVEAANNLL”, the “soluble fraction (log2)” value was -0.313.

“HMANKTISMTTLKLVIQQLSKGISRQSISAQYHISRNTIKKYEKRIKAMDMKIEDILKLSDEEISNLLQ”: the “soluble fraction (log2)” value is -0.273.

Turning to “HMANLNFDMSQIVASRYQEKAAELGVTAPSLARTDYNTQEQATYEFVAREIIADYYDDRVAPFNDLIPE”, the “soluble fraction (log2)” value was -0.967.

Regarding “HMANNPISMIKIRQILRLHIQGRSKLQIAAQTGISRNTLKKYLKEFEASKLTYDEISELSDKDLEDLFIK”, the “soluble fraction (log2)” value was 0.225.

Regarding “HMANTSAVIKQPGLVKLFAQHFVRNGFNAMKAAEAAGFVRPSPTFVRNLADSKPVKDAISELLGPYNDA”, the “soluble fraction (log2)” value came to 0.22.

“HMANWRVGQTINALVSDRMPSGGLLLTVGRQSFVTTRDIPVQPGARIMLEVQQVEPKLVLRLVSA”: the “soluble fraction (log2)” value was -0.236.

Turning to “HMAPADLSPEERVVLDALALEPVHVDALAAKLGRRSEELLTSLTLMEMRGLAVAHAGSRYSRATMT”, the “soluble fraction (log2)” value is -0.934.

Take “HMAPEEIPLDRVVRLVEQGRVESIVVTGERLEVTLQNGTVYGSTKENGVGFMETLDRYQVPLEQRDFSYEV”: the “soluble fraction (log2)” value is -0.72.

Regarding “HMAPELRSDAQMRRLWALAKENGLDEVGFRAFISDATGREVESTKSLTATEAHRLIEELEAP”, the “soluble fraction (log2)” value is -0.758.

For “HMAPEPFIVQITASSLNVRKGPGTSYAVAQTVSKGQVFTIVQQQGGWGKLKSGAGWISLKYTAR”, the “soluble fraction (log2)” value is -0.0269.

On to “HMAPEQWYVLTSGQLPKGPYRLRHIVAMSKGDNWLVARKGAEQWTPLRHLPEFRQAQEANEYIQAIS”, for which the “soluble fraction (log2)” value is -0.122.

With “HMAPFSGVEPREWDSLVERGRQSGEVHAEDVTHVLRHVELTGDVLTDVQSKMAEHGITIDDA”, the “soluble fraction (log2)” value is -0.0344.

Regarding “HMAPGASEVPDLTSLPAREALLRLTKLGLLPEMEGTGRLVRQQPAAGTRVPKGSKVHLVFEPG”, the “soluble fraction (log2)” value turned out to be 0.0438.

Turning to “HMAPIEVPYNVFRQQVVEGNVESVATRADTVQGYFETPVTLPARPDAAAAEPVTVERFSTTLPSF”, the “soluble fraction (log2)” value came to 0.00217.

On to “HMAPKRIVLRFGKDISDKPIIYYLVKDYDLVINILKANVNPNKEGTLVLELSGENYDKGIEFLISQGVTVQ”, for which the “soluble fraction (log2)” value was -1.33.

As to “HMAPKVHLLKVPVDKIREIIGTGGKVIRQITEETGAKIDISDDGSVKVSSPDQSSIDAATTWITGIIAE”, the “soluble fraction (log2)” value was -0.102.

As for “HMAPLATLEAGEDGSVKLPNLAGHSIREVAAALGGAKLSLIPIGSGTSWKQTPAPGAVLHSGDTVTVYF”, the “soluble fraction (log2)” value came to 0.0923.

For the sequence “HMAPNDELTRQVISVLSGTPQQAFNYKQISKKLNINDSSERRMVSNILRELAGKGEIVEVYQGKYRSKAPA”, the “soluble fraction (log2)” value amounted to 0.116.

“HMAPPTAEFFAHLPAEALSAVRRSVEEGNARGIDEAILRVETLDGEAGRVLRGLAARYEYGRILELTQR”: the “soluble fraction (log2)” value is -0.0842.

For “HMAPQSAAAILRYLSSGAIRGVGPATAQRIVERFGTDSLEIIQNRPKELAAINGISINKALSISEEYAKQY”, the “soluble fraction (log2)” value was -0.0357.

For “HMAPREELIAIHEALDKLEREDPQVSQLVKLRYFVGMTMAEAADAMDLKKRAAEALWTYGKAWLHREIKKN”, the “soluble fraction (log2)” value is -0.576.

With “HMAPRIVTIQIPVDKIRDVIGPGGKVIRSIIERTGVKIDVEDDGRVNVASADGDSAQRAIAIIQELTAT”, the “soluble fraction (log2)” value is -0.0595.

Consider “HMAPSIPSGADIRAAREAAGINLRDFARIVDGPGIAIWSRYETGTPIRVKSISPEVWQKVRDFISQHG”, for which the “soluble fraction (log2)” value was 0.228.

On to “HMAPTADSVPFVIRSVVGGAQPFIVLEDGSKLLVGGVYRKYRLVAVENTRIIFEGPRTAIVT”, for which the “soluble fraction (log2)” value was -0.681.

For “HMAPTPAGNLRSLKSEIVNYTRQSSTAYVYTFKDLSSGELYTARASRYYAAAGDTAYISTAAGAITDM”, the “soluble fraction (log2)” value is -0.0513.

On to “HMAPTVPEVVRLEEGAARSAIEAAGLSVGSVEFRASSDPAGTVLATRPIAGRKVRPSSAVDLVLSDGRTP”, for which the “soluble fraction (log2)” value turned out to be 0.0751.
